Our source for the Kd values is US20120308570A1, “METHODS FOR TREATING DISEASES” (priority 2009, published 2012).

For orientation: Kd means the concentration at which binding is half-saturated.

First the molecules themselves.
B1: iNOS N-terminal peptide II, Ac-KEAKDINNNVKKT-NH2 (peptide)
peptide: Ac-KEAKDINNNVKKT-NH2
B2: iNOS N-terminal peptide VI, Ac-KEEKDANNNVKKT-NH2 (peptide)
peptide: Ac-KEEKDANNNVKKT-NH2
B3: iNOS N-terminal peptide VII, Ac-KEEKDIANNVKKT-NH2 (peptide)
peptide: Ac-KEEKDIANNVKKT-NH2
B4: iNOS N-terminal peptide V, Ac-KEEKAINNNVKKT-NH2 (peptide)
peptide: Ac-KEEKAINNNVKKT-NH2
B5: iNOS N-terminal peptide IX, Ac-KEEKDINANVKKT-NH2 (peptide)
peptide: Ac-KEEKDINANVKKT-NH2
B6: iNOS N-terminal peptide IV, Ac-KEAADINNNVKKT-NH2 (peptide)
peptide: Ac-KEAADINNNVKKT-NH2
B7: iNOS N-terminal peptide XIV, Ac-KEEKDINNNAKAT-NH2 (peptide)
peptide: Ac-KEEKDINNNAKAT-NH2
B8: iNOS N-terminal peptide III, Ac-KEEADINNNVKKT-NH2 (peptide)
peptide: Ac-KEEADINNNVKKT-NH2
B9: iNOS N-terminal peptide VIII, Ac-KEEKDIQNNVKKT-NH2 (peptide)
peptide: Ac-KEEKDIQNNVKKT-NH2

The target of this assay is T1, SSB-2ΔSB (recombinant murine SSB-2 SPRY domain, residues 12-224) (mouse, UniProt O88838 12-224).
T1 construct: 226 residues in total; expressed as GST fusion in E. coli, GST cleaved off with thrombin; 15N-labelled for NMR; coupled to NHS-Sepharose for pull-downs; also called SPSB2
T1 sequence: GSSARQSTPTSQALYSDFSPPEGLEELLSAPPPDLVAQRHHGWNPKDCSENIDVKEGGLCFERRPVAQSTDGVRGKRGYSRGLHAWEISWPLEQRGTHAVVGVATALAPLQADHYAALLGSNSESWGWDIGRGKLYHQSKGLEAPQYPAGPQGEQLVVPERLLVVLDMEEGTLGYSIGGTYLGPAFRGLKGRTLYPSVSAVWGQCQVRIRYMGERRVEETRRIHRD
The experiment in a line: ITC, 25 C, peptide injected into SSB-2ΔSB. The method, then: FIG. 3. Typical ITC raw data and titration curves for SSB-2 and iNOS peptide interactions. Titration curves were fitted using the “One Set of Sites” model in MicroCal Origin.
Wild-type and mutant iNOS peptides (Table 2), corresponding to Lys19-Thr31 of mouse iNOS, were synthesized by GL Biochem (Shanghai) Ltd. These peptides were N-terminal acetylated and C-terminal amidated. All ITC measurements were carried out at 25° C. using a Microcal omega VP-ITC (Microcal Inc., Northampton, Mass.). SSB-2ΔSB was dialysed against buffer (100 mM TrisHCl, 150 mM NaCl, pH 8.0), and wild-type and mutant iNOS N-terminal peptides were prepared in the same buffer from 5 mM stocks. Solutions of 5 to 10 μM SSB-2ΔSB in the cell were titrated by injection of a total of 290 μL of 50-200 μM of iNOS peptides. Data analysis was performed using the evaluation software, MicroCal Origin version 5.0. All curves were fitted using the nonlinear least-squares fitter and the “One Set of Sites” model.
(In ITC the heat of successive injections is recorded.)
Regarding B1, the Kd came out at 14 nM.

Regarding B2, the Kd was determined as 23.5 nM. The figure for B3 is 17200 nM.

With B4, the Kd came out at 21600 nM.

As to B5, the Kd was determined as 826 nM.

B6: the dissociation constant (Kd) came out at 65.4 nM. The figure for B7 is 180 nM; for B8 it is 127 nM.

Take B9: the Kd was 40500 nM.
